The values that follow are results of earlier work, collected in paper PMC7481795.

In general, Kd refers to a measure of binding affinity in units of concentration.

Data set [1] addresses β-glucuronidase (Homo sapiens) (UniProt P08236).
Data set [2] has the same target. The source holds these as a separate data set.

Read-outs that look alike come from different tables or passages of the source.

β-glucuronidase (Homo sapiens), sequence (P08236 23-651): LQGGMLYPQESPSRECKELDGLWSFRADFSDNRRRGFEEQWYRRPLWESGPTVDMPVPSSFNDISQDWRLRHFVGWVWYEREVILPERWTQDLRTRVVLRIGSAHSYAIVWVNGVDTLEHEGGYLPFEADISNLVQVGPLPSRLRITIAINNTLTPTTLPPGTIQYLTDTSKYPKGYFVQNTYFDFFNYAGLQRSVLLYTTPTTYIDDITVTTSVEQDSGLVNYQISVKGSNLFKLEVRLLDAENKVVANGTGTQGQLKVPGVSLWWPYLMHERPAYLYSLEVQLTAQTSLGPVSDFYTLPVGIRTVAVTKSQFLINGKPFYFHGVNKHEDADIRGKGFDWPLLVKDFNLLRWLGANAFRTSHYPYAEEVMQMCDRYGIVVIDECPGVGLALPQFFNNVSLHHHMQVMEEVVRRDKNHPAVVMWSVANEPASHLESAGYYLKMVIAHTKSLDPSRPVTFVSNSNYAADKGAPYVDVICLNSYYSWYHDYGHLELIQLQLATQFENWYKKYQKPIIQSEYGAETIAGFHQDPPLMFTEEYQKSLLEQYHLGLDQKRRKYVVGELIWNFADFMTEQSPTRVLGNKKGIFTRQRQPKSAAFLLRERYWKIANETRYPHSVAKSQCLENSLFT
cation-independent mannose 6-phosphate receptor domain 3, sequence (P08169 332-477): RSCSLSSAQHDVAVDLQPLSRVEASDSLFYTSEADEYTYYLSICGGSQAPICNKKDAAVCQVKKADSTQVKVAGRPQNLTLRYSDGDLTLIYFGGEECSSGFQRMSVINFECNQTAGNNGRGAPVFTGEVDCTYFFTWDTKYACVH
cation-independent mannose 6-phosphate receptor domains 1-3, sequence (P08169 45-477): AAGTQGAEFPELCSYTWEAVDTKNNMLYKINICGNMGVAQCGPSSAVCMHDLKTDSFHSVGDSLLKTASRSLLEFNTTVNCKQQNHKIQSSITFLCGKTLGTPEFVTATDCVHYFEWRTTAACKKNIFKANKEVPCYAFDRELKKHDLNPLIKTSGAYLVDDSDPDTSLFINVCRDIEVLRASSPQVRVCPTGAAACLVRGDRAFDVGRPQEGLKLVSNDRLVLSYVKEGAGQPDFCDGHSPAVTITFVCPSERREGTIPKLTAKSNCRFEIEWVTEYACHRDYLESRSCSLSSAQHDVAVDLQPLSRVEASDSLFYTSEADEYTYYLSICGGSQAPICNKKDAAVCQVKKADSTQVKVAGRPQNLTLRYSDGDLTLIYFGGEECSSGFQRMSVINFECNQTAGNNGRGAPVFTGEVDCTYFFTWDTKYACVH

With “cation-independent mannose 6-phosphate receptor domain 3 (from UniProt P08169)”, in data set [1], the Kd is 500 nM.

On to “cation-independent mannose 6-phosphate receptor domains 1-3 (from UniProt P08169)”, for which the Kd in data set [2] is 0.5 nM.
